According to patent publication US20260275317A1, “CHIMERIC ENDOLYSINS WITH ACTIVITY AGAINST STREPTOCOCCI AND STAPHYLOCOCCI” (UNIVERSITEIT GENT, priority 2023, published 2026):
Values joined by “and” are separate entries in the source; they are usually repeats but may differ in a detail not shown here. Identical values can stand only once.

Tests used:
[1] = tested on: intracellular S. uberis GCC ST-5 in MAC-T and PS cells; test: Intracellular killing assay in bovine mammary epithelial cell lines; format: cell-based, Streptococcus uberis; settings: 2.5 μM, 1 h
Description: Cells were seeded in a 24-well plate at 50.000 cells/well with the addition of 25 μg/mL calf skin collagen type I (dissolved in 0.1 M acetic acid) (Sigma-Aldrich, USA) and grown to 100% confluency. Next, medium was removed and cells were washed 3× with dPBS to remove residual P/S. An overnight bacterial culture was washed with dPBS, dissolved in an equal volume of prewarmed cell culture media without the addition of P/S and 0.5 mL thereof was incubated with the cells in every well during 3 h at 37° C. to allow intracellular invasion. Afterwards, this suspension was removed, serially diluted and plated as previously described to determine the amount of extracellular bacteria. Cells were again washed 3× with dPBS and 0.5 mL of prewarmed cell culture media was added with the addition of 200 μg/ml gentamycin (Sigma-Aldrich, USA) and incubated during 3 h at 37° C. to kill remaining extracellular and adhered bacteria. Next, this suspension was likewise removed and plated to check if killing of the extracellular and adhered bacteria was successful. Cells were again 3× washed with dPBS and 2.5 µM of prewarmed NC5 in cell culture media without P/S (buffer exchange performed at 4-8° C. by means of a Pierce™ Protein Concentrator PES 10 kDa MWCO) was added during 1 h to eradicate the intracellular bacteria. […]

[2] = tested on: stationary phase S. uberis; test: Time killing assay (TKA), S. uberis; format: cell-based, Streptococcus uberis; settings: for ΔLog10 (CFU/mL): 1 h
Description: (§1) Concerning the time killing assay, an overnight bacterial culture was diluted 1:10 for S. uberis, S. agalactiae-& dysgalactiae or 1:100 for S. aureus in PBS or UHT-pasteurized whole cow's milk. […] Finally, these fractions were serially diluted 1:10 in PBS. 5 μL of each fraction was spotted on TSA or BHI-agar and incubated overnight at 37° C. The following day, colony forming units (CFU) were counted and converted to CFU/mL to calculate logarithmic reductions in comparison with the negative control. The relative scores were calculated by dividing the observed logarithmic reduction for each endolysin by the maximal reduction observed for that specific condition and strain. Next, this value was divided by the number of conditions and strains tested (i.e., 8=4 bacterial strains×2 conditions (PBS/UHT-milk)). As such, the best performing candidate in each individual assay received a score of 0.125 (=(1/1)/8). […] Turbidity reduction assays were performed by combining 100 μL of overnight grown bacterial cells with an equal volume of purified enzyme at the desired concentration. Bacterial cells were washed with PBS and resuspended in a 1:1 ratio with enzyme to an OD600 of approximately 1.0. Next, the OD600 was measured using a Tecan infinite 200 PRO plate reader (Tecan, Switzerland) every 15 seconds at 37° C., shaking the 96-well plate between each measurement.
(§2) Time killing and turbidity reduction assays were performed as previously described in 1.3.1.
(§3) Time killing assays were performed as previously described in 1.3.1.

[3] = tested on: S. agalactiae; test: Time killing assay (TKA), S. agalactiae; format: cell-based, Streptococcus agalactiae; settings: 0.3 μM
Description: as §1, §2, §3

[4] = tested on: S. agalactiae; test: Turbidity reduction assay (TRA), S. agalactiae; format: cell-based, Streptococcus agalactiae
Description: (§4) Concerning the time killing assay, an overnight bacterial culture was diluted 1:10 for S. uberis, S. agalactiae-& dysgalactiae or 1:100 for S. aureus in PBS or UHT-pasteurized whole cow's milk. A volume of 10 μL thereof was combined with an equal amount of chimeric endolysin in PBS (or only PBS as negative control) in triplicate and incubated in a covered 96-well microtiter plate at 37° C. for 2 h. The dose was low (i.e. 0.25 μM), but this was chosen to differentiate between less and better performing variants, consequently allowing a ranking. Finally, these fractions were serially diluted 1:10 in PBS. 5 μL of each fraction was spotted on TSA or BHI-agar and incubated overnight at 37° C. The following day, colony forming units (CFU) were counted and converted to CFU/mL to calculate logarithmic reductions in comparison with the negative control. The relative scores were calculated by dividing the observed logarithmic reduction for each endolysin by the maximal reduction observed for that specific condition and strain. Next, this value was divided by the number of conditions and strains tested (i.e., 8=4 bacterial strains×2 conditions (PBS/UHT-milk)). As such, the best performing candidate in each individual assay received a score of 0.125 (=(1/1)/8). […] Turbidity reduction assays were performed by combining 100 μL of overnight grown bacterial cells with an equal volume of purified enzyme at the desired concentration. Bacterial cells were washed with PBS and resuspended in a 1:1 ratio with enzyme to an OD600 of approximately 1.0. Next, the OD600 was measured using a Tecan infinite 200 PRO plate reader (Tecan, Switzerland) every 15 seconds at 37° C., shaking the 96-well plate between each measurement.
as §2

[5] = tested on: S. dysgalactiae; test: Turbidity reduction assay (TRA), S. dysgalactiae; format: cell-based, Streptococcus dysgalactiae
Description: as §4, §2

B1: NC5: chimeric endolysin SEQ ID NO: 17; HIV-1 TAT + PlySs2 CHAP + Ply1081 CW_7 + PlySs9 amidase_3 (protein)
chain: MYGRKKRRQRRRGATTVNEALNNVRAQVGSGVSVGNGECYALASWYERMISPDATVGLGAGVGWVSGAIGDTISAKNIGSSYNWQANGWTVSTSGPFKAGQIVTLGATPGNPYGHVVIVEAVDGDRLTILEQNYGGKRYPVRNYYSAASYRQQVVHYITPPGTVAQSAPNLAGAGIDQLVQETLAGKYGNGEQRKAALGSQYQAVMAVINGKATAPKKTVDQLAQEVIQGKHGNGEDRKKSLGPDYDAVQKRVTEILKGSPSGNIPKTPSDAPKSEVVNSSTEPKTEETGANGKATDTKITKGSGKHLVICGHGQGRTGYDPGAVNAKLGITEAGKVRELSKLMSKYSGQQIDFITEQNVYDYRSITSIGKGYDSITELHFNAFNGSAKGTEVLIQSSLEADKEDMAILSLLSRYFQNRGIKKVDWLYNANQAASRGYTYRLVEIAFIDNEQDMAIFENKKEDIAKGLVSAITGVEVKTIVPSPPSSTVGSSGTPSKSIYLVGDSLRVLPHATHYQTGQKIANWVKGRTYKILQVKNVHQSNSKRAYLLDGIKSWVLEQDVEGTTKGHSKYHHHHHH
Δ Log10 reduction of intracellular S. uberis ([1]; infected MAC-T): 1.62±0.05 Log10
Δ Log10 reduction of intracellular S. uberis ([1]; infected PS, remaining bacteria at or below detection limit 200 CFU/mL): at least 2.12±0.08 Log10
ΔLog10 (CFU/mL) ([2]; Clinical S. uberis 1 (Unknown ST and GCC), 0.3 μM): 0.03 Log10 (CFU/mL)
ΔLog10 (CFU/mL) ([2]; Clinical S. uberis 2 (Unknown ST, GCC 5), 0.3 μM): 4.05±0.07 Log10 (CFU/mL) and 4.05 Log10 (CFU/mL)
ΔLog10 (CFU/mL) ([2]; Clinical S. uberis 3 (Unknown ST, GCC 5), 0.3 μM): 1.82 Log10 (CFU/mL)
ΔLog10 (CFU/mL) ([2]; Clinical S. uberis 4 (ST 815, GCC 143), 0.3 μM): 0.00 Log10 (CFU/mL)
ΔLog10 (CFU/mL) ([2]; Clinical S. uberis 5 (ST 944, GCC 5), 0.3 μM): 0.71 Log10 (CFU/mL)
Δ log10 ([2]; S. uberis 0140J, 0.3 μM): 1.16±0.06 log10
ΔLog10 (CFU/mL) ([2]; Subclinical S. uberis 1 (ST 808, GCC 143), 0.3 μM): 3.02±0.37 Log10 (CFU/mL) and 3.02 Log10 (CFU/mL)
ΔLog10 (CFU/mL) ([2]; Subclinical S. uberis 2 (Unknown ST and GCC), 0.3 μM): 1.13 Log10 (CFU/mL)
ΔLog10 (CFU/mL) ([2]; Subclinical S. uberis 3 (Unknown ST, GCC 5), 0.3 μM): 1.24 Log10 (CFU/mL)
ΔLog10 (CFU/mL) ([2]; Subclinical S. uberis 4 (Unknown ST and GCC), 0.3 μM): 2.48 Log10 (CFU/mL)
log10 reduction ([2]; mastitis-derived S. uberis GCC ST-5, 0.3 μM, versus PBS): 1.17±0.06 log10
ΔLog10 (CFU/mL) ([3]; S. agalactiae 1, 1 h): 1.49 Log10 (CFU/mL)
ΔLog10 (CFU/mL) ([3]; S. agalactiae 2, 1 h): 1.50 Log10 (CFU/mL)
ΔLog10 (CFU/mL) ([3]; S. agalactiae 3, 1 h): 0.00 Log10 (CFU/mL)
log10 reduction ([3]; mastitis-derived S. agalactiae, versus PBS): 1.50±0.12 log10
Δ log10, reductions up to ([3]; three clinical S. agalactiae isolates): ≤ 1.50±0.02 log10
lysis speed (ΔOD600/min)/μM ([4]; S. agalactiae 1, 0.3 μM): 0.15 (ΔOD600/min)/μM
ΔOD600 ([4]; S. agalactiae 1, 1 h, 0.3 μM): 0.42
lysis speed (ΔOD600/min)/μM ([4]; S. agalactiae 2, 0.3 μM): 0.08 (ΔOD600/min)/μM
ΔOD600 ([4]; S. agalactiae 2, 1 h, 0.3 μM): 0.39
lysis speed (ΔOD600/min)/μM ([4]; S. agalactiae 3, 0.3 μM): 0.12 (ΔOD600/min)/μM
ΔOD600 ([4]; S. agalactiae 3, 1 h, 0.3 μM): 0.41
ΔOD600, reductions up to ([4]; three clinical S. agalactiae isolates, 0.3 μM): up to 0.39±0.02
lysis speed (ΔOD600/min)/μM ([5]; S. dysgalactiae 1, 0.3 μM): 0.25 (ΔOD600/min)/μM
ΔOD600 ([5]; S. dysgalactiae 1, 1 h, 0.3 μM): 0.48
lysis speed (ΔOD600/min)/μM ([5]; S. dysgalactiae 2, 0.3 μM): 0.30 (ΔOD600/min)/μM
ΔOD600 ([5]; S. dysgalactiae 2, 1 h, 0.3 μM): 0.66
lysis speed (ΔOD600/min)/μM ([5]; S. dysgalactiae 3, 0.3 μM): 0.25 (ΔOD600/min)/μM
ΔOD600 ([5]; S. dysgalactiae 3, 1 h, 0.3 μM): 0.51
ΔOD, reductions up to ([5]; three clinical S. dysgalactiae isolates, 0.3 μM): ≤ 0.48±0.03
